# According to article PMC11335211, “In vivo photocontrol of orexin receptors with a nanomolar light-regulated analogue of orexin-B” (Cellular and Molecular Life Sciences: CMLS, 2024):
# Key:
# human OX1 = biological target: T1, human OX1 (Homo sapiens, UniProt O43613); assay: FLIPR Tetra calcium mobilization assay, CHO-K1 cells; format: cell-based; details: CHO-K1 cells stably expressing hOX1; 0.3 nM to 1 µM; two independent experiments in triplicates
# T1 construct: expressed in transfected cells
# T1 sequence (O43613 1-425): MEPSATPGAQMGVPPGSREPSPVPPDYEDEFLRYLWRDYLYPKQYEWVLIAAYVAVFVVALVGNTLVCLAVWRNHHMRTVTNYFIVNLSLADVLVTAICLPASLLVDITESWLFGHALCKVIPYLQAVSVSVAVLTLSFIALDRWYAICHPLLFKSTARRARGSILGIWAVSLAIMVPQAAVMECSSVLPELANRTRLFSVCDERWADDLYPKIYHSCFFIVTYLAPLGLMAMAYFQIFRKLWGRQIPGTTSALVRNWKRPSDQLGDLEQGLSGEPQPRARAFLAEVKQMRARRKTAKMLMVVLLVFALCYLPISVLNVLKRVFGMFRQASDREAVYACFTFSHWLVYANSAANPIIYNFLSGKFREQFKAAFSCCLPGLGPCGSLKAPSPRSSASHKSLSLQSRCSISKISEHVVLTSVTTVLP
# Description: (§1) Samples of trans phOX were kept in the dark both prior to and during the whole duration of the experiment to avoid undesired photoconversion caused by environmental light. Unless differently stated, data for cis phOX were obtained by pre-illuminating the samples for 10 min with 365 nm UV light.
# (§2) PFSK-1 cells were cultured in RPMI 1640 supplemented with 10% fetal bovine serum (FBS), 100 units/ml penicillin, and 100 µg/ml streptomycin. Chinese hamster ovary-K1 (CHO-K1) cells stably transfected to express human OX1 were cultured in Dulbecco’s Modified Eagle’s Medium/Nutrient Mixture F-12 Ham (DMEM/F12 1:1) medium supplemented with 10% FBS and 600 µg/ml G418. All cell lines were grown at 37 °C in 5% CO2.
# (§3) Cells were plated at 50,000 cells/well in 96-well black-wall plates with poly-D-lysine-coated clear bottoms and grown overnight at 37 °C in 5% CO2. […] Calcium-mediated changes in fluorescence were monitored in a Fluorometric Imaging Plate Reader (FLIPR) Tetra instrument (Molecular Devices, USA). Fluorescence intensity was measured for 12 s to establish baseline fluorescence before addition of the test compound (20 µL/well) and further readings for a total of 155 s (excitation at 470–495 nm, detection at 515–575 nm). […]
# (§4) Raw data from the FLIPR Tetra was exported as the difference between maximum and minimum fluorescence observed for each well. […] Agonist potencies (EC50) are expressed as means + SD.
# hOX2 [1] = biological target: T2, hOX2 (Homo sapiens, UniProt O43614); assay: FLIPR Tetra calcium mobilization assay, PFSK-1 cells; format: cell-based; details: PFSK-1 cells innately expressing hOX2; 0.3 nM to 1 µM; two independent experiments in triplicates
# T2 sequence (O43614 1-444): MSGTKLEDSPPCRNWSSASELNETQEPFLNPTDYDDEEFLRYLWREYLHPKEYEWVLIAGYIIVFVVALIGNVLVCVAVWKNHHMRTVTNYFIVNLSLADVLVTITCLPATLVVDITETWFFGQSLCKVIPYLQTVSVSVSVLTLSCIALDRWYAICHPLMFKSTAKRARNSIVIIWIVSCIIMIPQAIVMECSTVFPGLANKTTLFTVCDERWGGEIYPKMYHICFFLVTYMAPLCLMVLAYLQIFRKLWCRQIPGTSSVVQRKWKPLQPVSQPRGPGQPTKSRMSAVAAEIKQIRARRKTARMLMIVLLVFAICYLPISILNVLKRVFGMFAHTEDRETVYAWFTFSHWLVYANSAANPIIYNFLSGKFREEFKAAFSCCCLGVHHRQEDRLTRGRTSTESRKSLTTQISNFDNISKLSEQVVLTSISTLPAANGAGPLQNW
# Description: as §1, §2, §3, §4
# OX2 = details: in words; cited from earlier work
# Excerpt: Among these, a family of neuroexcitatory peptides known as orexins (or hypocretins) is critically involved in regulating sleep and wakefulness, energy homeostasis, and reward. Orexin signaling is mediated by two closely related G protein-coupled receptors (GPCRs) – OX1 and OX2 (orexin) receptors – which are strongly conserved among mammals. While orexin cell bodies are concentrated in the hypothalamic area, orexin receptors are widely expressed in the central nervous system (CNS). Their endogenous ligands are two peptides, named ...
# OX1 receptor = details: membrane-based binding assay; ref Langmead et al., 5 (SI); cited from earlier work
# Excerpt: Although the lack of binding with all three forms of OX-B - including the native ligand control - came unexpected, similar findings had already been observed for the OX1 receptor.
# [2] = set-up: method as in 2 sources, one per row (each row's own in cited_ref): ref 75–77 = [75]; PMID 10087007; 75. Kastin AJ Akerstrom V Orexin A but not orexin B rapidly enters brain from blood by simple diffusion J Pharmacol Exp Ther 1999 289 219 223 10087007 || [76]; PMID 12626669; doi:10.1113/jphysiol.2002.038729; 76. John J Wu M-F Kodama T Siegel JM Intravenously administered hypocretin-1 alters brain amino acid release: an in vivo microdialysis study in rats J Physiol 2003 548 557 562 10.1113/jphysiol.2002.03 || [77]; PMID 14746374; doi:10.1093/sleep/26.8.953; 77. Fujiki N Yoshida Y Ripley B Mignot E Nishino S Effects of IV and ICV hypocretin-1 (orexin A) in hypocretin receptor-2 gene mutated narcoleptic dogs and IV hypocretin-1 replacement therapy in a hyp ||| ref 75 = [75]; PMID 10087007; 75. Kastin AJ Akerstrom V Orexin A but not orexin B rapidly enters brain from blood by simple diffusion J Pharmacol Exp Ther 1999 289 219 223 10087007; details: cited from earlier work
# [3] = set-up: method as in PMID 10087007; details: cited from earlier work
# hOX2 [4] = biological target: T2, hOX2; assay: Radioligand competitive binding assay ([3H]EMPA); set-up: expressed in transfected cells; membranes; details: control ligands; HEK-293-hOX2 membranes, [3H]EMPA 2 nM, 60 min rt, 10^-9 to 10^-6 M; two independent experiments in triplicates
# Excerpt: The affinity towards OX2 was studied in a competitive radioligand binding assay on membranes derived from HEK-293 cells stably transfected with the human receptor. [^3H]EMPA, an OX2-selective orthosteric antagonist, was used as radioactive tracer to quantify residual binding after competitive displacement in the presence of the unlabeled ligands.^3 Wild-type OX-B and almorexant, a non-selective OX1 and OX2 antagonist, served as controls.^4
# [^3H]EMPA (specific activity 27 Ci/mmol) and almorexant were synthesized at Janssen Research & Development LLC (San Diego, CA), while orexin-B was obtained from Bachem (Torrance, CA).
# Cell membranes were prepared from a stable pool of HEK-293 cells transfected with the human OX2. Test compounds were dissolved in DMSO (10 mM stock solutions) and diluted in Dulbecco’s phosphate-buffered saline supplemented with 0.1% bovine serum albumin (BSA). Competition studies were performed by incubating the membranes with the OX2-selective antagonist [^3H]EMPA (2 nM) and different concentrations of the test compounds (7 concentrations ranging from 10^−9 to 10^−6 M). After a 60-minute incubation at rt, binding reactions were filtered to separate the excess of free ligand from the membranes. Filters were then counted for radioactivity in a scintillation counter. Nonspecific binding was determined in the presence of 10 µM almorexant.
# Specific binding was determined and plotted as a function of the concentration of the compound using GraphPad Prism v8.3.1 (GraphPad Software, San Diego, USA). Data were analyzed by nonlinear regression using a one-site competition model.
substance,measurement,setting,value
"OX-B: endogenous orexin peptide, native ligand control, obtained from Bachem",increase in calcium release (agonist activity),human OX1,increased calcium release in a concentration-dependent manner
same,increase in calcium release (agonist activity),hOX2 [1],increased calcium release in a concentration-dependent manner
same,receptor selectivity,OX2,selective for OX2
same,occupation of OX1 orthosteric site versus [3H]SB-674042,OX1 receptor,failed to occupy the receptor orthosteric site
same,metabolism,[2],readily metabolized
same,lipophilicity relative to OX-A,[3],not as lipophilic
same,inhibition of [3H]EMPA binding,hOX2 [4],did not compete to bind to the receptor
